Key:
[1] = molecular target: T1, Rat tail tendon type I collagen (rat, UniProt P02454 152-1207; P02466 86-1125); assay: solid-phase collagen-binding assay, anti-His detection, one-site binding model
[2] = molecular target: T1, Rat tail tendon type I collagen; assay: cell-based or functional assay

T1 sequence (P02454 152-1207 limits assumed, chain 1 of 2): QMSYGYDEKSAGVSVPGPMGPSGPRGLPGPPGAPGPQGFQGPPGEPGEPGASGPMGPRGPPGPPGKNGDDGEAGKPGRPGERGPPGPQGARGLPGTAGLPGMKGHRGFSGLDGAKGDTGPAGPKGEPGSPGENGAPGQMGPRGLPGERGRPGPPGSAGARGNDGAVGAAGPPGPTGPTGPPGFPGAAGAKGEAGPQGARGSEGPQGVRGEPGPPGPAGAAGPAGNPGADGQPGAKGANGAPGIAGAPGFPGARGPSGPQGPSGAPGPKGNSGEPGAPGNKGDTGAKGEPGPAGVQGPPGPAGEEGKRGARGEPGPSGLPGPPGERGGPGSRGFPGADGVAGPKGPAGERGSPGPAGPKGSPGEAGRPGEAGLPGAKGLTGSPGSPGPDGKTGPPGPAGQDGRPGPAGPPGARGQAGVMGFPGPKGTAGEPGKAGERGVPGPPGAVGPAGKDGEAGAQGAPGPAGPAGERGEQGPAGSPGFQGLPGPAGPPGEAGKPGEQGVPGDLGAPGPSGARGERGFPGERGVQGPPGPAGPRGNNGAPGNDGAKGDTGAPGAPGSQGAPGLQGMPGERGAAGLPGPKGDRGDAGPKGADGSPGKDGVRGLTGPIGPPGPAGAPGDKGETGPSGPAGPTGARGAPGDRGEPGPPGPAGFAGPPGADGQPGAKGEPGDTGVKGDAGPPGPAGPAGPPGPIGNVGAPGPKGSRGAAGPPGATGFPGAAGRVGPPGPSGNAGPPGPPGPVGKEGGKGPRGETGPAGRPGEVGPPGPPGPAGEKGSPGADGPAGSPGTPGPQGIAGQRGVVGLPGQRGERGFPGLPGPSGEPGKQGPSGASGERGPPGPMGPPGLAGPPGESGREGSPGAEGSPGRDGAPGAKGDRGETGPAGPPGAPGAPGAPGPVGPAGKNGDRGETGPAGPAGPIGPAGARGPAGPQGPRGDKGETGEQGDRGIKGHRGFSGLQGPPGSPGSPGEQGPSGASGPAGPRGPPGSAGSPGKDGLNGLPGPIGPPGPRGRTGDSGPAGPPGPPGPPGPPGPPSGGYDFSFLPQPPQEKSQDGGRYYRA
T1 sequence (P02466 86-1125 limits assumed, chain 2 of 2): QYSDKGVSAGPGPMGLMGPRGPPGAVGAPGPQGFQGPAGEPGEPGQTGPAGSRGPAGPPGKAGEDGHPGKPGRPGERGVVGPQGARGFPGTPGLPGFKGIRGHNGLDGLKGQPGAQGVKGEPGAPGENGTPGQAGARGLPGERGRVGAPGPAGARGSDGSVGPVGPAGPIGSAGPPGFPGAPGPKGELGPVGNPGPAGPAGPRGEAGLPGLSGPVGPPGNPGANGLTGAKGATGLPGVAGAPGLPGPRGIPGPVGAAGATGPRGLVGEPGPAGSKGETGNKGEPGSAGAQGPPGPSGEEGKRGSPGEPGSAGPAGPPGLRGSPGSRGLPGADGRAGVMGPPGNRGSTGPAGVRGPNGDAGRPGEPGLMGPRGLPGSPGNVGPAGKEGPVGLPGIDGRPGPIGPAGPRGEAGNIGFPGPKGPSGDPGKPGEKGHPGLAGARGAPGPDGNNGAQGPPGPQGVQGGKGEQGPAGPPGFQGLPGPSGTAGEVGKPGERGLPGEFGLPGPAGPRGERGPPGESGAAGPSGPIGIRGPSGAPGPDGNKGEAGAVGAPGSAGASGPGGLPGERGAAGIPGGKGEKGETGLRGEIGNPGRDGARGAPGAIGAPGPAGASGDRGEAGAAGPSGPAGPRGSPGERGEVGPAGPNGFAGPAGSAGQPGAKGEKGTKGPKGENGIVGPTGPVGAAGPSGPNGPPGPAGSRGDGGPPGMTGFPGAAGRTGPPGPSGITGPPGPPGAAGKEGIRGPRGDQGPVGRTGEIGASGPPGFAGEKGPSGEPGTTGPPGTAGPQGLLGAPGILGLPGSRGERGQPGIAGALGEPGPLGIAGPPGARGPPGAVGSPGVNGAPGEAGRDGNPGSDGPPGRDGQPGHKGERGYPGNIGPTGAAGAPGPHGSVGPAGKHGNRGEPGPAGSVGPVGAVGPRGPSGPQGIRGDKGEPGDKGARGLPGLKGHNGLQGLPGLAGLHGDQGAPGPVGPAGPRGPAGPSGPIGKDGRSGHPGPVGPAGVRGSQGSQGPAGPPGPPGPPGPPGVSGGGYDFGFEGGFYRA

Row | Kd [1] | nucleating activity of rBSP in a collagen scaffold (hydroxyapatite nucleation) [2] | Molecule
1 | 4.04 nM | – | rBSP(1-75) (from UniProt P13839 1-75) (peptide)
2 | 5.64 nM | – | rBSP(1-100) (from UniProt P13839 1-100) (peptide)
3 | 50.3 nM | – | rBSP(19-100) (from UniProt P13839 19-100) (peptide)
4 | 22.9 nM | 0.025 nmol | Rat recombinant BSP (rBSP) (other, biotinylated with Sulfo-NHS-Biotin where used as the labelled protein in competition assays) FSMKNFHRRIKAEDSEENGVFKYRPRYFLYKHATYFYPPLKRFPVQGGSDSSEENGDGDSSEEEGEEEETSNEEENNEDSEGNEDQEAEAENATLSGVTASYGVETTADAGKLELAALQLPKKAGDAEGKAPKMKESDEEEEEEEEEENENEEAEVDENEQVVNGTSTNSTEVDGGNGPSGGDNGEEAEEASVTEAGAEGTTAGVRELTSYGTTTAVLLNGFQQTTPPPEAYGTTSPPARKSSTVEYGEEYEQIGNEYNTAYETYDENNGEPRGDTYRAYEDEYSYYKGHGYEGYEGQDYYYHQ

— patent US20090005298A1 (published 2009)
